± gives the uncertainty stated by the source.
experiment: protein stability index of a GFP-peptide fusion (yeast GPS) (PSI 1-4); higher = more stable; sorted into four equal gates, so the index is relative within each strain; conditions: doa10∆
Procedure, shortened: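 Tiled 17-residue yeast protein peptides were fused downstream of GFP in a plasmid that also expresses Cherry, and the pooled library was carried in yeast. Mid-log cultures in leucine-free medium were sorted into four equal gates by GFP/Cherry fluorescence ratio, and plasmids from each gate were PCR-amplified and Illumina-sequenced, with reads assigned to strains by barcodes. The protein stability index for each peptide was each gate's read frequency times its gate number, summed.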

Which protein stability index does the source give for ISGDISDMQHIERLLKD [PRE4] here?
Its protein stability index is 2.99 ± 0.14.

With ISKKLQFSYLSSTLGID [PCI8] as the sequence, how does the protein stability index read?
Its protein stability index is 2.08 ± 0.055.

Which protein stability index does the source give for ISKNPSNGIFYGPSFTK [SIR2] here?
Its protein stability index is 2.94 ± 0.071.

Which protein stability index does the source give for ISLLALPHSPLWELALA [YML031W/NDC1] here?
Its protein stability index is 1.35 ± 0.086.

With ISNGNLATGPNLTSEIE [YOR098C/NUP1] as the sequence, how does the protein stability index read?
Its protein stability index is 3.4 ± 0.096.

With ISQPKSMSGRISAKDMG [BRR2] as the sequence, how does the protein stability index read?
Its protein stability index is 3.1 ± 0.06.

For ISQSQLGKFKNIIASPL [SIN4], which protein stability index is on record?
The protein stability index was 1.73 ± 0.067.

With ISSHSHPVSLISFAIYS [RRP42] as the sequence, how does the protein stability index read?
Its protein stability index is 1.51 ± 0.052.

Which protein stability index does the source give for ISTHLKTICNLLISDTE [IRR1] here?
Its protein stability index is 1.64 ± 0.05.

For ISTVIEVNREEAIGFIR [SMC3], which protein stability index is on record?
Its protein stability index is 2.93 ± 0.21.

With ITAVHVKIRATGGTRTK [RPS14A] as the sequence, how does the protein stability index read?
Its protein stability index is 1.58 ± 0.05.

Which protein stability index does the source give for ITGEKLDTQLNDLRVSL [SMC1] here?
Its protein stability index is 1.3 ± 0.068.

With ITHKLTKNDAGSKQILK [BRR2] as the sequence, how does the protein stability index read?
Its protein stability index is 3.07 ± 0.071.

Which protein stability index does the source give for ITIQDLLFPKSTIVNLA [DPB4] here?
Its protein stability index is 2.45 ± 0.066.

For ITISIHGKPTKGSSLAS [SSN8], which protein stability index is on record?
The protein stability index was 2.24 ± 0.17.

For ITKVPALEFLNTTLQDN [REC8], which protein stability index is on record?
The protein stability index was 2.77 ± 0.08.

With ITLALSSNPNSSLHSPT [SRB4] as the sequence, how does the protein stability index read?
Its protein stability index is 2.9 ± 0.067.

For ITLFVLVSVVEAFIASG [FAS2], which protein stability index is on record?
The protein stability index was 1.53 ± 0.048.

Which protein stability index does the source give for ITMESVHEWEVSKPSLL [PRP8] here?
The protein stability index was 3.29 ± 0.069.

For ITNDWEQPCVDIISGKI [YJR042W/NUP85], which protein stability index is on record?
The protein stability index was 3.36 ± 0.078.

Which protein stability index does the source give for ITRSFKEPRLVIVTDPR [RPS0A] here?
Its protein stability index is 1.56 ± 0.2.

With IVDTSGRHHQEEELFQE [SRP54] as the sequence, how does the protein stability index read?
The protein stability index was 3.31 ± 0.07.

With IVHSSDGHLQFLNDVIP [DLS1] as the sequence, how does the protein stability index read?
The protein stability index was 2.99 ± 0.082.

Which protein stability index does the source give for IVKNAEQHNLVKKGPVR [RPS20] here?
Its protein stability index is 2.84 ± 0.058.

For IVNGTEKVILVQEQLSK [RET1], which protein stability index is on record?
Its protein stability index is 1.54 ± 0.13.

With IVSKSIEMYVQEASKQY [RPN2] as the sequence, how does the protein stability index read?
Its protein stability index is 2.53 ± 0.087.

With IVSPQSNKPCMGIVQDT [RPO21] as the sequence, how does the protein stability index read?
Its protein stability index is 1.74 ± 0.064.

For IVTEQPSAEIREAYIEN [SWP82], which protein stability index is on record?
The protein stability index was 2.47 ± 0.062.

For IVTPVEKAVEEKPAVKS [RPT3], which protein stability index is on record?
The protein stability index was 2.6 ± 0.1.

For IVVLVPKFGVEGLIRLD [DIS3], which protein stability index is on record?
The protein stability index was 2.16 ± 0.07.

With IYLSQNELTDAIALAVR [RPN1] as the sequence, how does the protein stability index read?
Its protein stability index is 2.58 ± 0.045.

With IYRYDEMSNKVLKVDKR [BRR2] as the sequence, how does the protein stability index read?
Its protein stability index is 2.97 ± 0.042.

For IYYTPAFFHLFASLRVL [YJL039C/NUP192], which protein stability index is on record?
Its protein stability index is 1.73 ± 0.08.

For KAAGLTAAYARTIGIAV [RPL13A], which protein stability index is on record?
Its protein stability index is 1.56 ± 0.077.

Which protein stability index does the source give for KADTDTLLYEQIIQRDK [SNF5] here?
The protein stability index was 3.23 ± 0.11.

Which protein stability index does the source give for KAEKTLKSTKHSISEAE [SMC4] here?
The protein stability index was 2.57 ± 0.068.

With KAEYVDQYDAERDFYHS [RPO31] as the sequence, how does the protein stability index read?
Its protein stability index is 2.75 ± 0.061.

For KAGKITTIEEIFLHSLP [RPS2], which protein stability index is on record?
The protein stability index was 2.8 ± 0.11.

Which protein stability index does the source give for KAGLMTGGISGDANNRW [SMC1] here?
Its protein stability index is 2.38 ± 0.11.

For KAGRAFHKYRLKRNSWP [RPL2A], which protein stability index is on record?
Its protein stability index is 2.87 ± 0.082.

For KAGVKESDTGLAPSHLW [RPT1], which protein stability index is on record?
The protein stability index was 2.93 ± 0.16.

Which protein stability index does the source give for KALDELKPEIEKLTSKS [LRP1] here?
The protein stability index was 2.86 ± 0.089.

For KARAKKTKKEKGPNEEE [RPN2], which protein stability index is on record?
The protein stability index was 3.45 ± 0.22.

With KARFVSKLAEEKIRAAG [RPL28] as the sequence, how does the protein stability index read?
The protein stability index was 2.508 ± 0.025.

For KAYVRLTADYDALDIAN [RPL25], which protein stability index is on record?
The protein stability index was 2.94 ± 0.14.

For KCKEVGITAVHVKIRAT [RPS14B], which protein stability index is on record?
Its protein stability index is 2.39 ± 0.063.

For KDERGEGEAKQKRNAHG [ITC1], which protein stability index is on record?
The protein stability index was 3.21 ± 0.18.

With KDGETTDANGKTIVTGG [RPO26] as the sequence, how does the protein stability index read?
Its protein stability index is 3.39 ± 0.076.

Which protein stability index does the source give for KDIVNISIPKTCDEIQN [REC8] here?
The protein stability index was 2.81 ± 0.067.

For KDLENAQVEMKSLEEQE [SMC1], which protein stability index is on record?
Its protein stability index is 3.43 ± 0.14.

With KDLSNYRKTEGIFEKAK [YMR153W/NUP53] as the sequence, how does the protein stability index read?
Its protein stability index is 3.01 ± 0.11.

From the supplement of paper PMC9732359
